Here are results for eight molecules from patent US20210008207A1 (TECHNISCHE UNIVERSIT T M NCHEN, published 2021).

The target of experiment [1] is CEACAMs endogenously expressed on MKN45 gastric cancer cells (CEACAM1, CEACAM5 and CEACAM6). The experiment is described as follows: flow cytometry; MKN45 cells with myc-His-tagged HopQ, anti c-myc mAb, FITC goat anti-mouse F(ab')2; thin line: control IgG; number in the panel = median. On the technique in general: In flow cytometry, cells or beads pass a laser one at a time.

In experiment [2] the target is human CEACAM1 (hu-CEACAM1-4L) on stably transfected CHO cells (human) (UniProt P13688). The experiment can be described thus: flow cytometry; CHO transfectant 'CEACAM1' with HopQ as in Fig. 6 b; number in the panel = median; untransfected CHO with HopQ: 6 [cont.) c].
Experiment [3] addresses CEACAM3 on transfected CHO cells (human) (UniProt P40198). The experiment can be described thus: flow cytometry; CHO transfectant 'CEACAM3' with HopQ as in Fig. 6 b; number in the panel = median; untransfected CHO with HopQ: 6 [cont.) c].
For experiment [4], the target named is CEACAM8 on transfected CHO cells (human) (UniProt P31997). The experiment can be described thus: flow cytometry; CHO transfectant 'CEACAM8' with HopQ as in Fig. 6 b; number in the panel = median; untransfected CHO with HopQ: 6 [cont.) c].
Experiment [5] deals with CEACAM4 on transfected CHO cells (human) (UniProt O75871). The experiment is described as follows: flow cytometry; CHO transfectant 'CEACAM4' with HopQ as in Fig. 6 b; number in the panel = median; untransfected CHO with HopQ: 6 [cont.) c].
For experiment [6], the target named is CEACAM7 on transfected CHO cells (human) (UniProt Q14002). The experiment is described as follows: flow cytometry; CHO transfectant 'CEACAM7' with HopQ as in Fig. 6 b; number in the panel = median; untransfected CHO with HopQ: 6 [cont.) c].
In experiment [7] the target is CEACAM6 on transfected CHO cells (human) (UniProt P40199). The experiment is described as follows: flow cytometry; CHO transfectant 'CEACAM6' with HopQ as in Fig. 6 b; number in the panel = median; untransfected CHO with HopQ: 6 [cont.) c].
In experiment [8] the target is CEACAMs endogenously expressed on AGS gastric cancer cells (CEACAM1, CEACAM5 and CEACAM6). The experiment is described as follows: flow cytometry; AGS cells with myc-His-tagged HopQ, anti c-myc mAb, FITC goat anti-mouse F(ab')2; thin line: control IgG; number in the panel = median.
In experiment [9] the target is human CEACAM1 (hu-CEACAM1-4L) on stably transfected CHO cells (human) (UniProt P13688). The experiment can be described thus: flow cytometry; CHO-CEACAM1 cells with myc-His-tagged HopQ, anti c-myc mAb, FITC goat anti-mouse F(ab')2; thin line: control IgG; number in the panel = median.
For experiment [10], the target named is CEACAM5 on transfected CHO cells (human) (UniProt P06731). The experiment can be described thus: flow cytometry; CHO transfectant 'CEACAM5' with HopQ as in Fig. 6 b; number in the panel = median; untransfected CHO with HopQ: 6 [cont.) c].
Experiment [11] addresses CEACAMs endogenously expressed on AGS gastric cancer cells (CEACAM1, CEACAM5 and CEACAM6). The experiment is described as follows: cell-based or functional assay.
Experiment [12] has as its target human CEACAM1-Fc (extracellular domains N-A1-B1-A2 fused to a human heavy chain Fc-domain) (human) (UniProt P13688).
In experiment [13] the target is T1, recombinant human CEACAM5-Fc (Sino Biological Inc.) (human, UniProt P06731 35-685).
T1 construct: also called hu-CEACAM5-Fc; not shown: Fc part of the bought fusion; not described
T1 sequence: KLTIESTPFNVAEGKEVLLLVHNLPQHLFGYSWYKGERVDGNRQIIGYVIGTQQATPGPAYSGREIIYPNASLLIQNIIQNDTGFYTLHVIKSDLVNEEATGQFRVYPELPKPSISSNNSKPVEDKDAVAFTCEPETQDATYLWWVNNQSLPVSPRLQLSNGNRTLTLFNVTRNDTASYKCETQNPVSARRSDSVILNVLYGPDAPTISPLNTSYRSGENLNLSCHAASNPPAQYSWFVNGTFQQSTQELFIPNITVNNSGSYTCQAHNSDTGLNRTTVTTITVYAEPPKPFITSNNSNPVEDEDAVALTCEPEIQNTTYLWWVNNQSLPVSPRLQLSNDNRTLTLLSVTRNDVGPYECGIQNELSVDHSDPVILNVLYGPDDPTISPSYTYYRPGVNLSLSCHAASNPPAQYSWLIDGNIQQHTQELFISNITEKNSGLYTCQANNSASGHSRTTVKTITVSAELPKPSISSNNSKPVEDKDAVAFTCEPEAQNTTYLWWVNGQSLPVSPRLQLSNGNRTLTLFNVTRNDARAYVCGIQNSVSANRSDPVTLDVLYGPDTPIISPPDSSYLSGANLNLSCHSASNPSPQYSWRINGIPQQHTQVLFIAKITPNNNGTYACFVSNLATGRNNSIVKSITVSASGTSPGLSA
The experiment is described as follows: pull-down of live bacteria with CEACAM-Fc; western blot and flow cytometry with α-hu-IgG-FITC [cont.) c].

For experiment [14], the target named is T2, human CEACAM1-Fc (extracellular domains N-A1-B1-A2 fused to a human heavy chain Fc-domain) (human, UniProt P13688 35-428).
T2 construct: extracellular domain; Made in HEK293 cells; also called hu-CEACAM1-Fc; not shown: human heavy chain Fc-domain
T2 sequence: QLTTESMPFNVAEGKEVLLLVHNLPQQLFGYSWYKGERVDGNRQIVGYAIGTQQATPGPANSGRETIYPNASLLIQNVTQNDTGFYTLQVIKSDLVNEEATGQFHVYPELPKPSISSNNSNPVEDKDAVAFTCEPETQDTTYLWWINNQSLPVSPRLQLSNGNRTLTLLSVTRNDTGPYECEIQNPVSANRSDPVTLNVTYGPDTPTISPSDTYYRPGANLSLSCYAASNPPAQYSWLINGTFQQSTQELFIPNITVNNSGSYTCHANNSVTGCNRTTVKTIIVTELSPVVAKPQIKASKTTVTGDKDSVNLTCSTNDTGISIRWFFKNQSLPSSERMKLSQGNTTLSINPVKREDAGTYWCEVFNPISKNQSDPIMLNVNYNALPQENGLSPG
The experiment is described as above.

Experiment [15] addresses T3, human CEACAM6-Fc (extracellular domains N-A-B fused to a human heavy chain Fc-domain) (human, UniProt P40199 35-320).
T3 construct: extracellular domain; Made in HEK293 cells; also called hu-CEACAM6-Fc; not shown: human heavy chain Fc-domain
T3 sequence: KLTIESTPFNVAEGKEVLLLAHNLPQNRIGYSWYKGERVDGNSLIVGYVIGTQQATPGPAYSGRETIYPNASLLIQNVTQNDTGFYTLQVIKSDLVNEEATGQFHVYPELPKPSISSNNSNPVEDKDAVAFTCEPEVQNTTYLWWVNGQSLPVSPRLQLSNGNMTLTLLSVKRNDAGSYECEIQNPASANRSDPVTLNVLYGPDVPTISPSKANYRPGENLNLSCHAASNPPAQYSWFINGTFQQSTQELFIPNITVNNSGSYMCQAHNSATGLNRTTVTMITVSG
The experiment is described as above.

CEACAM3 on transfected CHO cells (human), sequence (P40198 35-252): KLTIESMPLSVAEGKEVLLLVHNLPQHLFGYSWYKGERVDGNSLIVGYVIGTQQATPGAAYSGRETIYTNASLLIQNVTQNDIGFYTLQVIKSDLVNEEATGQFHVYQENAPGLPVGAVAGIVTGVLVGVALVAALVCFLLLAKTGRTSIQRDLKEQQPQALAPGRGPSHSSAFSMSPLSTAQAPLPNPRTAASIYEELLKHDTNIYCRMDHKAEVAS
CEACAM8 on transfected CHO cells (human), sequence (P31997 35-320): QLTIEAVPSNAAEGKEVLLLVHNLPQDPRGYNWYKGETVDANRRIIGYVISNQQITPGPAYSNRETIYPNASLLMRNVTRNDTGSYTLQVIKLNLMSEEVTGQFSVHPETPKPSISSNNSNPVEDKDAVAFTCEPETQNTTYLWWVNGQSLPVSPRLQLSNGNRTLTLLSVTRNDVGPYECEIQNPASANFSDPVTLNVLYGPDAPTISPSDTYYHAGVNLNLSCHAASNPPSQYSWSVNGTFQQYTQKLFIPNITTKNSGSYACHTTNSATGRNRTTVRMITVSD
CEACAM7 on transfected CHO cells (human), sequence (Q14002 36-242): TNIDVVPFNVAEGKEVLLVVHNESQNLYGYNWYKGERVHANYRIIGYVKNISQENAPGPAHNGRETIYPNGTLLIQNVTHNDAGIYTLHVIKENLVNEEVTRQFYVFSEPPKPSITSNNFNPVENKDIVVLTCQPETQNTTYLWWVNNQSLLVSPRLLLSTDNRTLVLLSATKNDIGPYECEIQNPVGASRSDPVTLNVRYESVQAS
CEACAM4 on transfected CHO cells (human), sequence (O75871 36-244): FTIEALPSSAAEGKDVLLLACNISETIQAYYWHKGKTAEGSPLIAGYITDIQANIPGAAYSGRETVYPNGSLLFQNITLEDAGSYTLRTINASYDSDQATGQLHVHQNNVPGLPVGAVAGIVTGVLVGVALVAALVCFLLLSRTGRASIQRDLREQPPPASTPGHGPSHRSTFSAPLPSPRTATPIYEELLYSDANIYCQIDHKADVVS

As to “H. pylori strain P12 derived, myc and 6x His-tagged recombinant HopQ”, the median relative fluorescence (FL1-H) was 155 in experiment [1]; 63 in experiment [2]; 18 in experiment [3]; 6 in [4]; 6 in [5]; 6 in [6]. In addition, the median relative fluorescence (FL1-H) in experiment [7] is 12; in experiment [8] it was 32; in experiment [9], 18; in [10] it was 136.
In turn, “HopQ insertion domain (HopQ-ID) representing peptide (aa 190-218), HA-tagged, synthetic” showed a P12-induced phosphorylation of CagA, concentration needed against HopQ^AD (fold higher concentration than HopQ^AD) in experiment [11] of 10 to 20.
Molecule Outer membrane protein babA yielded a Score (Sequest) in [12] of 8.
The same measure, in the same setting: as for Outer membrane protein hopC, the figure is 14.4; as for Outer membrane protein hopZ, 31.7; as for Outer membrane protein sabA, 6.66.
On the same count and under the same terms, as for Outer membrane protein sabB, the figure is 23.4.

B1: HopQ of H. pylori strain P12, on live wild-type bacteria (compared with the isogenic P12ΔhopQ mutant) (other)
chain: AEDNGVFLSVGYQIGEAVQKVKNADKVQKLSDTYEQLSRLLTNDNGTNSKTSAQAINQAVNNLNERAKTLAGGTTNSPAYQATLLALRSVLGLWNSMGYAVICGGYTKSPGENNQKNFHYTDENGNGTTINCGGSTNSNGTHSSNGTNTLKADKNVSLSIEQYEKIHESYQILSKALKQAGLAPLNSKGEKLEAHVTTSKYQQDSQTKTTTSVIDTTNDAQNLLTQAQTIVNTLKDYCPMLIAKSSSGSGGGAATNTPSWQTAGGGKNSCETFGAEFSAASDMINNAQKIVQETQQLSANQPKNITQPHNLNLNTPSSLTALAQKMLKNAQSQAEILKLANQVESDFNKLSSGHLKDYIGKCDMSAISSTNMTMQSQKNNWGNGCAGVEETLTSLKTSAADFNNQTPQINQAQNLANTLIQELGNNPFRNMGMIASSTTNNGALNGLGVQVGYKQFFGEKKRWGLRYYGFFDYNHAYIKSNFFNSASDVWTYGVGSDLLFNFINDKNTNFLGKNNQISFGLFGGIALAGTSWLNSQFVNLKTISNVYSAKVNTANFQFLFNLGLRTNLARPKKKDSHHAAQHGIELGVKIPTINTNYYSFLDTKLEYRRLYSVYLNYVFAY
Turning to B1, the binding result in [13], in experiment [14] and in [15] was “binds” each time.
